Measurements: PMC6314547 (The Journal of Cell Biology, 2019)

Target: the molecule itself
Experiment: SEC-MALS

B1: FAM92A1 BAR domain (1–219 aa) (domain or fragment, UniProt A1XBS5 1-219, looked up)
chain: MMRRTLENRNAQTKQLQTAVSNVEKHFGELCQIFAAYVRKTARLRDKADLLVNEINAYAATETPHLKLGLMNFADEFAKLQDYRQAEVERLEAKVVEPLKTYGTIVKMKRDDLKATLTARNREAKQLTQLERTRQRNPSDRHVISQAETELQRAAMDASRTSRHLEETINNFERQKMKDIKTIFSEFITIEMLFHGKALEVYTAAYQNIQNIDEDEDLE
In the case of B1, the “stoichiometry N” value is reported as 2.
